Earlier results on one substance are cited in article PMC7140434.

The data set deals with emerin (Homo sapiens) (UniProt P50402).
Chain of UniProt P50402 (P50402 whole entry): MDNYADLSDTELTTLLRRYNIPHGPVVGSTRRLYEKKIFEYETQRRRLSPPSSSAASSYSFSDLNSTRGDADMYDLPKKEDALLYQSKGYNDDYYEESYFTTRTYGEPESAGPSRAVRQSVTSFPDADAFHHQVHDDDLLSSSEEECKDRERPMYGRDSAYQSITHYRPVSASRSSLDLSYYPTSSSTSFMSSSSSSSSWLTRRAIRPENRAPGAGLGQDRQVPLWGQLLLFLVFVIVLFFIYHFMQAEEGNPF

Consider HDAC3 (from UniProt O15379), for which the equilibrium dissociation constant (Kd) is 7.3 µM.
